Test results as given in PMC9616408.

Target: SD93 NA K385N/N387K mutant, recombinant NA head domain (residues 82-469) fused to a VASP tetramerization domain (not stated | influenza A virus A/Shandong/9/1993 (H3N2))
Experiment: SEC; HiLoad 16/100 Superdex 200 prep grade, 20 mM Tris-HCl pH 8.0, 100 mM NaCl, 10 mM CaCl2; NA head domain fused to a VASP tetramerization domain

SD93 NA K385N/N387K mutant, recombinant NA head domain (residues 82-469) fused to a VASP tetramerization domain (domain or fragment)
stoichiometry N: 4
